According to article PMC9988990:

Experiments:
Experiment in all cases: SEC; Superose 6 10/300 in 10 mM Tris, 100 mM NaCl, pH 8.0, after StrepTactin affinity purification; peak of the trimeric ectodomain
[1] = target: recombinant gorilla GII FV Env ectodomain variant mut1 (K342A/R343A) (simian foamy virus, gorilla (genotype II))
[2] = target: recombinant gorilla GII FV Env ectodomain variant mut2 (R356A/R369A) (simian foamy virus, gorilla (genotype II))
[3] = target: recombinant gorilla GII FV Env ectodomain, wild type (simian foamy virus, gorilla (genotype II))

recombinant gorilla GII FV Env ectodomain variant mut1 (K342A/R343A) (domain or fragment)
stoichiometry N [1]: 3

recombinant gorilla GII FV Env ectodomain variant mut2 (R356A/R369A) (domain or fragment)
stoichiometry N [2]: 3

recombinant gorilla GII FV Env ectodomain, wild type (domain or fragment)
stoichiometry N [3]: 3
